Assays:
Conditions in all cases: both partners purified
[1] = biological target: T1, GAPC2-Flag (cytosolic glyceraldehyde-3-phosphate dehydrogenase 2) (Arabidopsis, UniProt Q9FX54 1-338); test: co-IP; GAPC1-Flag or GAPC2-Flag purified from Arabidopsis mixed with purified NF-YC10-6xHis; IP with anti-Flag antibody and Protein A-agarose, overnight at 4 °C, buffer A (20 mM NaH2PO4 pH 8.0, 150 mM NaCl); blot with anti-6xHis antibody
T1 construct: Cytosolic glyceraldehyde-3-phosphate dehydrogenase GAPC2 of Arabidopsis; CaMV-35S promoter; source: Arabidopsis overexpressing GAPC2-Flag, purified with an anti-Flag antibody and Protein A-agarose
T1 sequence (Q9FX54 whole entry): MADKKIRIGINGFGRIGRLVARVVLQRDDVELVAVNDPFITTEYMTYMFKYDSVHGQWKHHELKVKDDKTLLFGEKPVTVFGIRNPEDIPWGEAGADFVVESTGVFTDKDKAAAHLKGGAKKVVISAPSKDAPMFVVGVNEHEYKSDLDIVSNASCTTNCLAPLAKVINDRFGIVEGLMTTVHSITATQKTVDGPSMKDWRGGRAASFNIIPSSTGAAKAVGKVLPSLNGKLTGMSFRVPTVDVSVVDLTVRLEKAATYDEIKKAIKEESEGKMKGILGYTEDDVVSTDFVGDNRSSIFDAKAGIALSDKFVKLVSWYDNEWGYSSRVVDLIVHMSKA

[2] = biological target: T2, GAPC1-Flag (cytosolic glyceraldehyde-3-phosphate dehydrogenase 1) (Arabidopsis, UniProt P25858 1-338); test: as above
T2 construct: Cytosolic glyceraldehyde-3-phosphate dehydrogenase GAPC1 of Arabidopsis; CaMV-35S promoter; source: Arabidopsis overexpressing GAPC1-Flag, purified with an anti-Flag antibody and Protein A-agarose
T2 sequence (P25858 whole entry): as the sequence (Q9FX54 whole entry) above, with H61N, V65I, D68E, G92A, F98Y, S227A, M274L counted along it

[3] = biological target: T3, GAPC2-6xHis (Arabidopsis, UniProt Q9FX54 1-338); test: co-IP; purified GAPC2-6xHis or GAPC2mut’-6xHis mixed with NF-YC10-6xHis-STREP; IP with anti-STREP antibody, blot with anti-6xHis antibody
T3 construct: Cytosolic glyceraldehyde-3-phosphate dehydrogenase GAPC2 of Arabidopsis; source: purified
T3 sequence (Q9FX54 whole entry): as the sequence (Q9FX54 whole entry) above

| binding result [1] | binding result [2] | binding result [3] | Binder |
| --- | --- | --- | --- |
| binds | binds | – | NF-YC10-6xHis (natural protein, Arabidopsis, UniProt Q58CM8 1-195, looked up, Nuclear factor Y subunit C10, cloned from Arabidopsis; also called recombinant NF-YC10) MRRPKSSHVRMEPVAPRSHNTMPMLDQFRSNHPETSKIEGVSSLDTALKVFWNNQREQLGNFAGQTHLPLSRVRKILKSDPEVKKISCDVPALFSKACEYFILEVTLRAWMHTQSCTRETIRRCDIFQAVKNSGTYDFLIDRVPFGPHCVTHQGVQPPAEMILPDMNVPIDMDQIEEENMMEERSVGFDLNCDLQ |
| – | – | binds | NF-YC10-6xHis-STREP (natural protein, Arabidopsis, UniProt Q58CM8 1-195, looked up, Nuclear factor Y subunit C10 of Arabidopsis) MRRPKSSHVRMEPVAPRSHNTMPMLDQFRSNHPETSKIEGVSSLDTALKVFWNNQREQLGNFAGQTHLPLSRVRKILKSDPEVKKISCDVPALFSKACEYFILEVTLRAWMHTQSCTRETIRRCDIFQAVKNSGTYDFLIDRVPFGPHCVTHQGVQPPAEMILPDMNVPIDMDQIEEENMMEERSVGFDLNCDLQ |

Reference: paper PMC7351759, “Nuclear moonlighting of cytosolic glyceraldehyde-3-phosphate dehydrogenase regulates Arabidopsis response to heat stress” (Nature Communications, 2020)
